Measured values from article PMC5351860, “Novel fimbrilin PGN_1808 in Porphyromonas gingivalis” (PLoS ONE, 2017).

Molecular target: the molecule itself
Assay: SDS-PAGE after partial denaturation; fractionated fimbriae in loading buffer with 1% SDS and 0.5 M 2-mercaptoethanol heated at 37, 60 and/or 80°C for 10 min; CBB staining and western blotting

B1: Mfa1 (Mfa1 fimbriae purified from the fimA gene-deletion mutant of P. gingivalis ATCC 33277) (natural protein)
chain: AGDGQDQANPDYHYVGEWAGKDKIEKVSIYMVPQGGPGLVESAEDLDFGTYYENPTIDPATHNAILKPKKGIKVNSAVGKTVKVYVVLNDIAGKAKALLANVNAADFDAKFKEIIELSTQAQALGTVADGPNPATAAGKIAKKNGTTDETIMMTCLQPSDALTIEAAVSEANAIAGIKNQAKVTVERSVARAMVSTKAQSYEIKATTQIGEIAAGSVLATITDIRWVVAQGERRQYLSKKRGTVPENTWVTPGSGFVPTSSTFHTNATEYYDYAGLWEDHNTNEAVISGTQVPTLADYQLQDVTGELANALSGKFLLPNTHKSGANAASSDYKRGNTAYVLVRAKFTPKKEAFIDRGKTYSDNTAVPEYVAGEDFFVGENGQFYVSMKSVTDPKVGGVAGMKAHKYVKGKVLYYAWLNPSTTSPDSWWNSPVVRNNIYHIHIKSIKKLGFNWNPLVPDPDPSNPENPNNPDPNPDEPGTPVPTDPENPLPDQDTFMSVEVTVLPWKVHSYEVDL
notes: source: fimA gene-deletion mutant derived from P. gingivalis ATCC 33277; fractionated by ammonium sulfate precipitation and DEAE Sepharose chromatography
binding result: binds
